Measured values published in patent publication US20240200091A1, “USE OF PROTOPORPHYRINOGEN OXIDASE” (BEIJING DABEINONG BIOTECHNOLOGY CO., LTD., priority 2021, published 2024).

Key:
Assay type in all cases: in vivo
[1] = system: transgenic soybean plants; test: oxyfluorfen tolerance of transgenic soybean plants (spray, grade of pesticide damage); conditions: for The grade of pesticide damage/plant: grade 0 / The grade of pesticide damage/plant: grade 1 / The grade of pesticide damage/plant: grade 2 / The grade of pesticide damage/plant: grade 3: 7 DAT, number of plants of 16 per genotype, grades; for tolerance to oxyfluorfen: soybean
[2] = system: transgenic soybean plants; test: saflufenacil tolerance of transgenic soybean plants (spray, grade of pesticide damage); conditions: for The grade of pesticide damage/plant: grade 0 / The grade of pesticide damage/plant: grade 1 / The grade of pesticide damage/plant: grade 2 / The grade of pesticide damage/plant: grade 3: 7 DAT, number of plants of 16 per genotype, grades
[3] = system: transgenic soybean plants; test: flumioxazin tolerance of transgenic soybean plants (spray, grade of pesticide damage); conditions: for The grade of pesticide damage/plant: grade 0 / The grade of pesticide damage/plant: grade 1 / The grade of pesticide damage/plant: grade 2 / The grade of pesticide damage/plant: grade 3: 7 DAT, number of plants of 16 per genotype, grades

B1: PPO-ECA: nucleotide sequence encoding Escherichia coli protoporphyrinogen oxidase PPO-EC (SEQ ID NO:43), Arabidopsis thaliana/soybean common codon usage bias (nucleic acid)
DNA: ATGAAAACACTTATCTTGTTCTCAACTAGAGATGGACAGACAAGAGAGATTGCTTCTTACTTGGCTTCAGAACTTAAGGAGTTGGGTATTCAAGCTGATGTTGCTAATGTTCATAGAATTGAAGAGCCTCAGTGGGAAAACTATGATAGAGTTGTTATTGGAGCTTCTATTAGATATGGTCATTACCATTCAGCTTTTCAAGAGTTCGTTAAGAAACATGCTACTAGACTTAACTCTATGCCATCAGCTTTTTACTCTGTTAACTTGGTTGCTAGAAAGCCTGAGAAAAGAACTCCACAAACAAACTCTTACGCTAGAAAGTTCCTTATGAACTCACAGTGGAGACCTGATAGATGCGCTGTTATTGCTGGTGCTCTTAGATATCCAAGATACAGATGGTACGATAGATTCATGATCAAGTTGATTATGAAAATGTCTGGAGGTGAAACTGATACAAGAAAGGAGGTTGTTTACACAGATTGGGAACAGGTTGCTAATTTCGCTAGAGAGATTGCTCATCTTACTGATAAGCCAACATTGAAATGA
modifications: The nucleotide sequence of PPO-ECA
- The grade of pesticide damage/plant: grade 0 ([1]; oxyfluorfen 360 g ai/ha (2×)): 16 plant
- The grade of pesticide damage/plant: grade 1 ([1]; oxyfluorfen 360 g ai/ha (2×)): 0 plant
- The grade of pesticide damage/plant: grade 2 ([1]; oxyfluorfen 360 g ai/ha (2×)): 0 plant
- The grade of pesticide damage/plant: grade 3 ([1]; oxyfluorfen 360 g ai/ha (2×)): 0 plant
- The grade of pesticide damage/plant: grade 0 ([1]; oxyfluorfen 720 g ai/ha (4×)): 13 plant
- The grade of pesticide damage/plant: grade 1 ([1]; oxyfluorfen 720 g ai/ha (4×)): 3 plant
- The grade of pesticide damage/plant: grade 2 ([1]; oxyfluorfen 720 g ai/ha (4×)): 0 plant
- The grade of pesticide damage/plant: grade 3 ([1]; oxyfluorfen 720 g ai/ha (4×)): 0 plant
- tolerance to oxyfluorfen ([1]; oxyfluorfen at four-fold field concentration (720 g ai/ha)): high-resistant tolerance
- tolerance to oxyfluorfen ([1]; oxyfluorfen at two-fold field concentration (360 g ai/ha)): high-resistant tolerance
- The grade of pesticide damage/plant: grade 0 ([2]; saflufenacil 50 g ai/ha (2×)): 9 plant
- The grade of pesticide damage/plant: grade 1 ([2]; saflufenacil 50 g ai/ha (2×)): 7 plant
- The grade of pesticide damage/plant: grade 2 ([2]; saflufenacil 50 g ai/ha (2×)): 0 plant
- The grade of pesticide damage/plant: grade 3 ([2]; saflufenacil 50 g ai/ha (2×)): 0 plant
- The grade of pesticide damage/plant: grade 0 ([2]; saflufenacil 100 g ai/ha (4×)): 8 plant
- The grade of pesticide damage/plant: grade 1 ([2]; saflufenacil 100 g ai/ha (4×)): 3 plant
- The grade of pesticide damage/plant: grade 2 ([2]; saflufenacil 100 g ai/ha (4×)): 5 plant
- The grade of pesticide damage/plant: grade 3 ([2]; saflufenacil 100 g ai/ha (4×)): 0 plant
- tolerance to saflufenacil ([2]; soybean, saflufenacil, compared with the control vector and CK): different extents of tolerance
- The grade of pesticide damage/plant: grade 0 ([3]; flumioxazin 120 g ai/ha (2×)): 16 plant
- The grade of pesticide damage/plant: grade 1 ([3]; flumioxazin 120 g ai/ha (2×)): 0 plant
- The grade of pesticide damage/plant: grade 2 ([3]; flumioxazin 120 g ai/ha (2×)): 0 plant
- The grade of pesticide damage/plant: grade 3 ([3]; flumioxazin 120 g ai/ha (2×)): 0 plant
- The grade of pesticide damage/plant: grade 0 ([3]; flumioxazin 240 g ai/ha (4×)): 15 plant
- The grade of pesticide damage/plant: grade 1 ([3]; flumioxazin 240 g ai/ha (4×)): 1 plant
- The grade of pesticide damage/plant: grade 2 ([3]; flumioxazin 240 g ai/ha (4×)): 0 plant
- The grade of pesticide damage/plant: grade 3 ([3]; flumioxazin 240 g ai/ha (4×)): 0 plant
- tolerance to flumioxazin ([3]; soybean, flumioxazin at different concentrations (120 and 240 g ai/ha)): high-resistant tolerance
